Here are results for 50 sequences from the supplement of paper PMC9112550, “Optimization of the antimicrobial peptide Bac7 by deep mutational scanning” (BMC Biology, 2022).

This data set concerns Escherichia coli TOP10. The data set can be described thus: shrunken log2 fold change of peptide-encoding DNA abundance (4.5 h post-induction vs induction); higher = less antimicrobial activity (less host growth inhibition). The settings on record: time post-induction: 4.5 h; library: site-saturation at positions 5, 18, 19, 20.
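Note: peptides expressed intracellularly from a pBAD plasmid library in pooled LB shake-flask culture, induced with 0.3% L-arabinose, DNA abundance read by NGS, three biological replicates, DESeq2 with apeglm shrinkage.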

As to RRIRQRPPRLPRPRPRPKGQPRP, the “shrunken log2 fold change” value is -0.0264.
Under RRIRHRPPRLPRPRPRPFALPRP stands 0.051.
As for RRIRWRPPRLPRPRPRPCAMPRP, the figure is -0.272; as for RRIRARPPRLPRPRPRPSDWPRP, 0.402; as for RRIRNRPPRLPRPRPRPMILPRP, -0.0112.
Under RRIRHRPPRLPRPRPRPDGAPRP stands -0.0729; under RRIRSRPPRLPRPRPRPEDYPRP, -0.00134.
For RRIRRRPPRLPRPRPRPHFNPRP, the “shrunken log2 fold change” value was -0.11.
Under RRIRWRPPRLPRPRPRPYAEPRP stands 0.258; under RRIRRRPPRLPRPRPRPVIAPRP, 0.654; under RRIRMRPPRLPRPRPRPVHEPRP, -0.232.
For RRIRCRPPRLPRPRPRPEDPPRP, the “shrunken log2 fold change” value was 0.779.
As for RRIRFRPPRLPRPRPRPRNYPRP, the figure is -0.236; as for RRIRQRPPRLPRPRPRPPTGPRP, 0.0124; as for RRIRKRPPRLPRPRPRPHEYPRP, -0.091.
Under RRIRMRPPRLPRPRPRPWKEPRP stands 0.0155.
As for RRIRWRPPRLPRPRPRPWRWPRP, the figure is 0.0969.
On to RRIRTRPPRLPRPRPRPGEGPRP, for which the “shrunken log2 fold change” value is 0.177.
As for RRIRSRPPRLPRPRPRPILTPRP, the figure is -0.125; as for RRIRHRPPRLPRPRPRPTTKPRP, 0.00227; as for RRIRRRPPRLPRPRPRPTHGPRP, 1.37.
As to RRIRQRPPRLPRPRPRPPHKPRP, the “shrunken log2 fold change” value worked out at 1.25.
Take RRIRIRPPRLPRPRPRPWCIPRP: the “shrunken log2 fold change” value was -0.0951.
As for RRIRVRPPRLPRPRPRPYTVPRP, the figure is -0.0784; as for RRIRPRPPRLPRPRPRPVQQPRP, 0.378.
Regarding RRIRHRPPRLPRPRPRPMPNPRP, the “shrunken log2 fold change” value was -0.0341.
Under RRIRSRPPRLPRPRPRPWIAPRP stands -0.181; under RRIRFRPPRLPRPRPRPVWVPRP, 0.0313.
Under RRIRPRPPRLPRPRPRPNEVPRP stands 0.292.
As for RRIRHRPPRLPRPRPRPYSWPRP, the figure is -0.345; as for RRIRSRPPRLPRPRPRPTYHPRP, -0.492; as for RRIRLRPPRLPRPRPRPYFKPRP, -1.3.
RRIRDRPPRLPRPRPRPYCEPRP: the “shrunken log2 fold change” value was -0.42.
For the sequence RRIRNRPPRLPRPRPRPNTMPRP, the “shrunken log2 fold change” value came to 0.402.
Under RRIRIRPPRLPRPRPRPWIWPRP stands -0.109; under RRIRPRPPRLPRPRPRPYMHPRP, -0.493; under RRIRIRPPRLPRPRPRPVANPRP, -0.109.
Under RRIRWRPPRLPRPRPRPSLKPRP stands 0.0451; under RRIRDRPPRLPRPRPRPCFNPRP, -0.134.
As for RRIRKRPPRLPRPRPRPVMAPRP, the figure is 0.588.
Take RRIRIRPPRLPRPRPRPMDYPRP: the “shrunken log2 fold change” value is -0.00141.
Under RRIRHRPPRLPRPRPRPYGMPRP stands -0.0262; under RRIRGRPPRLPRPRPRPSTFPRP, 0.112.
Under RRIRMRPPRLPRPRPRPSRMPRP stands 0.454.
Under RRIRIRPPRLPRPRPRPIQTPRP stands -0.0155; under RRIRKRPPRLPRPRPRPPVGPRP, 1.04; under RRIRRRPPRLPRPRPRPAIPPRP, -0.0158.
Take RRIRLRPPRLPRPRPRPNIHPRP: the “shrunken log2 fold change” value was -0.621.
Under RRIRPRPPRLPRPRPRPPYYPRP stands -0.492; under RRIRLRPPRLPRPRPRPWHDPRP, -0.205.
